Source: patent US20200188434A1, “A CELL COMPRISING A CHIMERIC ANTIGEN RECEPTOR (CAR)” (AUTOLUS LIMITED, priority 2017, published 2020)

Experiments:
SKOV3_BCMA cells = details: 72 hour time point; T cells expressing CAR, membrane tethering component and signal dampening component
Protocol: FIG. 13—A: Results of an Incucyte assay comparing killing of BCMA+ SKOV3 target cells over time in the presence of varying concentrations of rapamycin by T cells expressing an anti-BCMA CAR alone (Left-hand chart) or expressing an anti-BCMA CAR in combination with a membrane tethering component (v5-CD22(2Ig)-TM-FRB) and a signal dampening component (FKBP12-CD148).
B: A summary of the data presented in A at the 72 hour time-point.
SKOV3 cells, were engineered to be BCMA positive for use as target cells. Primary human T-cells from 2 donors were transduced with two CAR constructs: (i) “Classical” anti-BCMA CAR; (ii) the tri-cistronic “dampenable” BCMA CAR system described above, Non-transduced T-cells and T-cells transduced with the different CAR constructs were challenged 8:1 with SKOV3_BCMA cells in the presence of different concentrations of rapamycin and target cell killing was investigated using an incucyte assay.

streptavidin = streptavidin (Streptomyces avidinii, UniProt P22629); details: biotin mimicking peptides binding streptavidin; read-out: affinity; cited from earlier work
[1] = biological target: membrane tethering component (v5-CD22(2Ig)-TM-FRB) (human); test: cell-based or functional assay
Sequence of membrane tethering component (v5-CD22(2Ig)-TM-FRB) (human) (chain, as listed by the source): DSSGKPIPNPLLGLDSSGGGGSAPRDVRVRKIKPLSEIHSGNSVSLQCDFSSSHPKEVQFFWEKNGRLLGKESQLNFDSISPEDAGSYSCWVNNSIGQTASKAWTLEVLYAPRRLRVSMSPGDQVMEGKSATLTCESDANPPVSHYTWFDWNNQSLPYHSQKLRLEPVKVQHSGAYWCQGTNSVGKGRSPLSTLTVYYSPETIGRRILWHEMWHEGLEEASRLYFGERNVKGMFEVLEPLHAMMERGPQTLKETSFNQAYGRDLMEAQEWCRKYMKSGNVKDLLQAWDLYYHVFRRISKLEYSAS

Sequence of streptavidin (P22629 37-163): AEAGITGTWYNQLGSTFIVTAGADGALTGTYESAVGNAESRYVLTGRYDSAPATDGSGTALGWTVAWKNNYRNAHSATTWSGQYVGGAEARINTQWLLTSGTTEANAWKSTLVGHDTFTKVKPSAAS

| Molecule | Kd (streptavidin) [nM] | further results |
| --- | --- | --- |
| CO[C@H]1C[C@@H]2CC[C@@H](C)[C@@](O)(O2)C(=O)C(=O)N2CCCC[C@H]2C(=O)O[C@H]([C@H](C)C[C@@H]2CC[C@@H](O)[C@H](OC)C2)CC(=O)[C@H](C)/C=C(\C)[C@@H](O)[C@@H](OC)C(=O)[C@H](C)C[C@H](C)/C=C/C=C/C=C/1C [Rapamycin, rapamycin] | – | tested concentrations of Rapamycin at which killing of target cells was significantly inhibited (SKOV3_BCMA cells): above 0.82 μM |
| Biotin mimicking peptide, sequence CHPQGPPC (SEQ ID NO: 41) (Biotin mimicking peptide, ccstreptag) | 230 | – |
| Biotin mimicking peptide, sequence DVEAWLGAR (SEQ ID NO: 37) (Biotin mimicking peptide, short nanotag) | 17 | – |
| signal dampening component (FKBP12-CD148) | – | killing of BCMA+ SKOV3 target cells at the 72 hour time point (incucyte assay); rapamycin concentration above which killing was inhibited [1]: > 0.82 µM; target cells surviving at 50 hours (incucyte assay), T cells co-expressing the CAR with a dampener, with rapamycin [1]: 50% |
| Biotin mimicking peptide, sequence WSHPQFEK (SEQ ID NO: 39) [streptagII] | 72000 | – |
| Biotin mimicking peptide, sequence DVEAWLDERVPLVET (SEQ ID NO: 36) (Biotin mimicking peptide, long nanotag) | 3.6 | – |
